Molecular target: the molecule itself
Experiment: cryo-EM structure

| Protein | stoichiometry N |
| --- | --- |
| wild-type (WT) human asparagine synthetase (ASNS) (enzyme, UniProt P08243 1-561, looked up) MCGIWALFGSDDCLSVQCLSAMKIAHRGPDAFRFENVNGYTNCCFGFHRLAVVDPLFGMQPIRVKKYPYLWLCYNGEIYNHKKMQQHFEFEYQTKVDGEIILHLYDKGGIEQTICMLDGVFAFVLLDTANKKVFLGRDTYGVRPLFKAMTEDGFLAVCSEAKGLVTLKHSATPFLKVEPFLPGHYEVLDLKPNGKVASVEMVKYHHCRDVPLHALYDNVEKLFPGFEIETVKNNLRILFNNAVKKRLMTDRRIGCLLSGGLDSSLVAATLLKQLKEAQVQYPLQTFAIGMEDSPDLLAARKVADHIGSEHYEVLFNSEEGIQALDEVIFSLETYDITTVRASVGMYLISKYIRKNTDSVVIFSGEGSDELTQGYIYFHKAPSPEKAEEESERLLRELYLFDVLRADRTTAAHGLELRVPFLDHRFSSYYLSLPPEMRIPKNGIEKHLLRETFEDSNLIPKEILWRPKEAFSDGITSVKNSWFKILQEYVEHQVDDAMMANAAQKFPFNTPKTKEGYYYRQVFERHYPGRADWLSHYWMPKWINATDPSARTLTHYKSAVKA | 2 |
| R142I variant of human asparagine synthetase (ASNS) (enzyme, UniProt P08243 1-561, looked up) MCGIWALFGSDDCLSVQCLSAMKIAHRGPDAFRFENVNGYTNCCFGFHRLAVVDPLFGMQPIRVKKYPYLWLCYNGEIYNHKKMQQHFEFEYQTKVDGEIILHLYDKGGIEQTICMLDGVFAFVLLDTANKKVFLGRDTYGVIPLFKAMTEDGFLAVCSEAKGLVTLKHSATPFLKVEPFLPGHYEVLDLKPNGKVASVEMVKYHHCRDVPLHALYDNVEKLFPGFEIETVKNNLRILFNNAVKKRLMTDRRIGCLLSGGLDSSLVAATLLKQLKEAQVQYPLQTFAIGMEDSPDLLAARKVADHIGSEHYEVLFNSEEGIQALDEVIFSLETYDITTVRASVGMYLISKYIRKNTDSVVIFSGEGSDELTQGYIYFHKAPSPEKAEEESERLLRELYLFDVLRADRTTAAHGLELRVPFLDHRFSSYYLSLPPEMRIPKNGIEKHLLRETFEDSNLIPKEILWRPKEAFSDGITSVKNSWFKILQEYVEHQVDDAMMANAAQKFPFNTPKTKEGYYYRQVFERHYPGRADWLSHYWMPKWINATDPSARTLTHYKSAVKA | 2 |
